Laboratory results published in PMC4939424 (2016).

B1: GST-fused PI3KAP/XB130 C-terminal fragment, amino acid residues 511-843 (GST-del1) (protein)
chain: LPSRDCQDDLYDDVEVSELIAVVEPAEEAAPAVDANSGSEPDRVYLDLTPVKSFLHSSSEAQAQASLPAVPHQDDVAETLTVDPKPGTTPEEPHTESPGDPEVQQRQPEVQESSEPIEPTPRITMVKLQAEQQRISFPANCPDTMASAPIAASPPVKEKLRVTSAEIKLGKNRTEAEVKRYTEEKERLERSKEEIRGHLAQLRREKRELKETLLRCTDKGVLAKLEQTLKKIDEECRMEESRRVDLELSIMEVKDNLKKAEAGPVTLGTTVDTTHLDNMSPRPQPKAATPNPPPDSTPVNSASVLKNRPLSVMVTGKGTVLQKAKEWEKKGAS
B2: GST-fused C-terminal 70 amino acid residues of PI3KAP/XB130 (GST-del3) (protein)
chain: PVTLGTTVDTTHLDNMSPRPQPKAATPNPPPDSTPVNSASVLKNRPLSVMVTGKGTVLQKAKEWEKKGAS
B3: GST-fused PI3KAP/XB130 fragment, GST-del1 without the C-terminal 70 amino acids (GST-del2) (protein)
chain: LPSRDCQDDLYDDVEVSELIAVVEPAEEAAPAVDANSGSEPDRVYLDLTPVKSFLHSSSEAQAQASLPAVPHQDDVAETLTVDPKPGTTPEEPHTESPGDPEVQQRQPEVQESSEPIEPTPRITMVKLQAEQQRISFPANCPDTMASAPIAASPPVKEKLRVTSAEIKLGKNRTEAEVKRYTEEKERLERSKEEIRGHLAQLRREKRELKETLLRCTDKGVLAKLEQTLKKIDEECRMEESRRVDLELSIMEVKDNLKKAEAG

Molecular target: Actin filaments (F-actin) polymerized in vitro from rabbit skeletal muscle actin (Oryctolagus cuniculus (Rabbit), UniProt P68135)
Assay: F-actin co-sedimentation (pelleting)

Binder	binding result
B1	binds
B2	binds
B3	no binding
